From publication PMC10845952, “Mass spectrometry and split luciferase complementation assays reveal the MecA protein interactome of Streptococcus mutans” (Microbiology Spectrum, 2024)

B1: MnmG fused to the RenG C-terminal domain (156-314) (natural protein, S. mutans, UniProt Q8DRS6 1-631, looked up)
chain: MTHEFTENYDVIVIGAGHAGVEASLATSRMGCKTLLATINLEMLAFMPCNPSIGGSAKGIVVREIDALGGEMGKNIDKSYIQMRMLNTGKGPAVRALRAQADKALYARNMKHTVEQQENLTLRQSMIDEILVEDGKVIGVRTATNQKYSAQAVIVTTGTALRGEIILGELKYSSGPNNSLASVTLADNLRDLGLEIGRFKTGTPPRVKANSIHYDETEIQPGDKKANHFSFMSKDEDYLKDQIPCWLTYTNQSSHDIINKNLYRAPMFSGIVKGVGPRYCPSIEDKIVRFADKDRHQLFLEPEGRETEEVYIQGLSTSLPEDVQKDVVHSIKGLENAEMMRTGYAIEYDIVLPHQLRATLETKKISGLFTAGQTNGTSGYEEAAGQGIVAGINAALKIQGKPELILKRSDAYIGVMIDDLVTKGTLEPYRLLTSRAEYRLILRHDNADLRLTEIGHQVGLVNEERYMRFQIRKNQFDNELTRLSSIKLKPVAEINKRIEELGFKPLTDALTAKEFMRRPEINYAIATSFVGPAAESLDEKVIELLETEIKYEGYINKALDQVAKMKRMEEKRIPKNIDWDAIDSIATEARQKFKKINPETIGQASRISGVNPADISILMVYLEGKNRSRTR
notes: not shown: RenG luciferase C-terminal domain (156-314), C-terminal, kept
B2: GltB fused to the RenG C-terminal domain (156-314) (natural protein, S. mutans, UniProt Q8CWY8 1-478, looked up)
chain: MADPFGFLKYERKDNPYRPVNERIKDFEELQTTLSVEERQKQAARCMNCGIPFCHEGTFYGGGRAVSGCPNDNLIPEWNDLIYKGDFRRAFERLTRTNPLPEMTGRVCPAPCEKACTEGLNGSGVTIHDNERFIIDNAFEEGWVADSGRPIERTGFKVAVVGSGPAGLSAAWRLNQLGHSVTVFERSDRFGGLLMYGIPNMKLDKKIVQRRIDTMASIGINFVANTEIGRDITAEELLEKFDRVILATGASVPRDLDIPGRDLKGIRFAVDFLTETTKNLLDSDTHELPPLLEGKHVLVIGGGDTGNDCIGTAVRLGAASVRQLEITPQLPEKRLPTNPWPQYPMINRTGYGQEEADFVQQTDLTDYITSTVEFLGENGQVTAVKTIKVGPGFKAIEGTEEVIKADLVLLAMGFTGAEKALFDQFRVECVYDDYSTRNEKVFVAGDARRGPSLVIWGIREGRKTAEKIDQNLRMMVTE
B3: PheT fused to the RenG C-terminal domain (156-314) (natural protein, S. mutans, UniProt Q8CWX2 1-801, looked up)
chain: MLVSYKWLKELVDIDVPSHELAEKMSTTGIEVEGVDVPAEGLSKLVVGHVLSCEDVPETHLHLCQVDTGEEESRQIVCGAPNITAGIKVIVALPGARIADNYKIKKGKIRGMESLGMICSLQELGLPDSIIPKEYSDGIQILPEDAVPGESIFPYLDLDDEIIELSITPNRADALSMRGVAHEVAAIYDKSVHFEDKVLTESDKKAADLIKVAIASDKVLTYKARVVENVTIKPSPQWLQNLLMNAGIRPINNVVDVTNYVLLYFGQPMHAFDLDKFEGKDILARQAKAGEKLVTLDGEARDLIEEDLVITVADKPVALAGVMGGAATEIDASSKNVVLEAAVFDGKSVRKTSSRLNLRSESSSRFEKGVNYADVVKALDFAAAMLTELADGTVLAGQVSAGAVPTDDIQVSTSLDYVNVRLGTDLVFSDIESVFARLGFGLSGNDEKFTVSVPRRRWDISIQADLVEEIARIYGYDKLPTTLPEAAGTVGELTKTQKLRRKIRNLAEGSGLSEIISYALTTPEKAVAFTPNPTKITELMWPMTVDRSALRQNIVSGMLDTIAYNVARKSNNLALYEIGKVFEQTADPKKDLPKEIDTFAFALTGLVTEKDFQTAATPVDFFYAKGVLEAILAKLEITVQFVATKEMANMHPGRTALIERDGQVIGYLGQVHPQTAKLYDIPETYVAEVNLNALEAALKSDLVFEDITKFPAVSRDIALLLSEKVSHQDILDAIAASGVKRLIKVKLFDVYAGEKLGVGKKSMAYSLTFQNPNDNLTDEEVAKYMEKITSALTEKVGAEVR
notes: Phenylalanine-tRNA ligase subunit beta, PheT; S. mutans UA159; not shown: RenG luciferase C-terminal domain (156-314), C-terminal, kept
B4: AlaS fused to the RenG C-terminal domain (156-314) (natural protein, S. mutans, UniProt Q8CWY0 1-872, looked up)
chain: MKQLTSAQVRQMWLDFWKSKDHAIEPSANLVPVNDPTLLWINSGVATLKKYFDGSVIPENPRITNAQKAIRTNDIENVGKTARHHTMFEMLGNFSVGDYFRDDAIKWGFELLTSPEWFDLPKDKLYMTYYPDDKDSYNRWIECGVDPSHLIPIEDNFWEIGAGPSGPDTEIFFDRGEDFDPDHIGVRLLAEDIENDRYIEIWNIVLSQFNADPAVPRSEYKELPHKNIDTGAGLERLVAVMQGAKTNFETDLFMPIIREIEKLSGKTYDQDGDNMSFKVIADHIRSLSFAIGDGALPGNEGRGYVLRRLLRRAVMHGRRLGINEPFLYKLVPTVGKIMESYYPEVLEKQDFIEKIVKREEETFARTIDAGSNMLDQLLADLKAADKDTLEGKDIFRLYDTYGFPVELTEELAEDAGFKIDHQGFQAAMKEQQERARANVVKGGSMGMQNETLSNITEKSTFNYEKEALDSSLSVIIADNKRIEAVSEGQVLLVFSETPFYAEMGGQVADHGLIKNDKGDTVARVTDVQKAPNGQALHTVDVLGSLSVGTTYHLEIDHERRNRVMKNHTATHLLHAALHNVIGNHATQAGSLNEVEFLRFDFTHFEAVTPEELRQIEEEVNQQIWKAIPVTTIETDLDTAKEMGAMALFGEKYGKNVRVVSIGDYSVELCGGTHLKNTSEIGIFKIVKEEGIGSGTRRILAVTSKEAFEAYRQEEDILKEIATTLKAPQMNQVANKVASLQDQLHKLQKENAELKEKAAAVAAGDIFKDVKEVNGLRYIASQVEVADAGALRTFADKWKQKDYSDVLVLVASIGKKVNVLVASKSKDIHAGNLIKALAPIVSGRGGGKPDMAMAGGSDASAIKDLIAAVAENL
notes: Alanine-tRNA ligase, AlaS; S. mutans UA159; not shown: RenG luciferase C-terminal domain (156-314), C-terminal, kept
B5: TopA fused to the RenG C-terminal domain (156-314) (natural protein, S. mutans, UniProt Q8DUD3 1-705, looked up)
chain: MTSKTTTTVKKTSKKRATPKKNLVIVESPAKAKTIEKYLGRSYKVVASVGHIRDLKKSSMSIDFDNNYEPQYINIRGKGPLINSLKKEAKNAKQIFLASDPDREGEAISWHLAHILDLDLKGKNRVVFNEITKDAVKNAFVEPRQIDMDLVDAQQARRVLDRIVGYSISPILWKKVKKGLSAGRVQSVALKLIIDRENEIKAFKPEEYWSIDGFFKKGNKKFQANFYGLDNKKTKLKSNDDVKKVLTRIKNDDFLVDKVEKKERKRNAPLPYTTSSLQQDAANKINFRTRKTMMVAQQLYEGIRLGSNGQQGLITYMRTDSTRISPVAQNDAANYITEHFGAEYSKHGNHVRNASGAQDAHEAIRPSNVNHTPESIAKYLDKDQLKLYTLIWNRFVASQMTAAVFDTVKVNLTQNGVLFIANGSQIKFKGYMAVYNDSDKTKVLPEMIKGETVKKISANPEQHFTQPPARYSEASLIKTLEENGVGRPSTYAPTLETIQKRYYVRLVSKRFEPTELGEIVNSLIIEFFPDIVDVKFTAEMESKLDEVEIGKEEWQKVIDQFYKPFEKEVIKAEEQMEKIQIKDEPAGFDCDVCGHPMVIKLGRYGKFYACSNFPDCHNTKAITKEIGVICPICQKGQVIERKTKRNRIFYGCDRYPDCDFTSWNKPIGRDCPKSGDFLVEKKIRGGGKQVVCSNEECDYKEKAVK
B6: IlvD fused to the RenG C-terminal domain (156-314) (natural protein)
chain: not shown
notes: Dihydroxy-acid dehydratase, IlvD; S. mutans UA159; not shown: RenG luciferase C-terminal domain (156-314), C-terminal, kept
B7: ClpC with the RenG C-terminal domain (156-314) fused to its N-terminus (natural protein, S. mutans, UniProt Q8DS14 1-813, looked up)
chain: MTDYSLKMQEVFRLAQFEAARFESSYLESWHVLLAMVEIDSSVAGLSFAEFEADVRFEDYQAAAILAIGKKPKSSSNDIMLLEQSHALKRTLAEAAAISQVTHAKEVGTEHVLFAMLLNPNLLATRILELVGFHAKDDGESIRLLDLRKVIERYAGFSKEDIKAIFEMRKPKKVKNSSSFSDLMKPPSVTGELADFTRDLTELARQGRLEPVIGREQEISRMVQILSRKTKNNPVLVGDAGVGKTALAYGLAQRIVDSAVPFELADMKVLELDMMSVVAGTRFRGDFEERMNQIIADIEADGHIVLFIDELHTIMGSGSGIDSTLDAANILKPALARGSLRTIGATTQEEYQKHIEKDAALSRRFAKVTIEEPSEEEAYQILLGLKKSYETYHHVIISDAAVMAAVKGAHRYLSGKNLPDSAIDLLDEASATVQGLVKKKAPAYLTDLDHALITNDYQLAKRLLKKEKKPLLKKRAEVKEEDILATLSKLSGIPVKKLTQADSKKYLNLERELHKRVIGQDDAVSSISRAIRRNQSGIRVGKRPIGSFMFLGPTGVGKTELAKALAEVLFDDESALIRFDMSEYMEKFAASRLNGAPPGYVGYEEGGELTEKVRNKPYSVLLFDEVEKAHPDIFNILLQVLDDGVLTDSRGRKVDFSNTIIIMTSNLGATALRDDKTVGFGAKSFSQDYKAMESRILEELKKVYRPEFINRIDEKVVFHNLGQEDIRHIVKIMVAPLIAHLADQGITLKFQPSALKHLALAGYDAEMGARPLRRTLQTEVEDKLAELILSGKLASGQTLKIGIQKEKLKFDIV
notes: also called N-ClpC

Each binder was assayed against T1, MecA fused to the RenG N-terminal domain (1-155) (S. mutans, UniProt Q8DW33 1-240) (assay: split reporter (BiFC, NanoBiT)). Conditions: partners not purified.
T1 construct: adaptor protein MecA; S. mutans UA159; source: S. mutans, expressed in live cells; not shown: RenG luciferase N-terminal domain (1-155), C-terminal, kept
T1 sequence: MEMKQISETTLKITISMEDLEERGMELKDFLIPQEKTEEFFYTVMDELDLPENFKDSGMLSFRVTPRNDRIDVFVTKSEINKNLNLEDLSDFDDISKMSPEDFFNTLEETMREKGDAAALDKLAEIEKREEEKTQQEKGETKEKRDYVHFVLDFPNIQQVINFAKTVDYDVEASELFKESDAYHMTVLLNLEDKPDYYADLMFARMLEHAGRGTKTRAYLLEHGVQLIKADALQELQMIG

Binder | relative binding affinity (%)
B1 | 8 ± 0.33%
B2 | 7.45 ± 0.28%
B3 | 17.9 ± 0.77%
B4 | 5.5 ± 0.29%
B5 | 8.64 ± 0.36%
B6 | 13.1 ± 0.61%
B7 | 55.2 ± 4.16%
